Measured values reported in patent US9605038B2, “Fusion peptide comprising dhFas-1 domain and MMP substrate and use thereof for preventing and treating rheumatoid arthritis” (Kyungpook National University Industry-Academic Cooperation …, priority 2010, dated 2017).
Where a chain is given by its changes, count along the chain named. “Also recorded” adds a separate entry of the source.

B1: MFK23: fusion peptide having sequential links of mdhFas-1, MMP2 substrate GPLGVRG (SEQ ID NO: 5), and QERGDSLA (SEQ ID NO: 10) (protein)
chain: QAMPPEELNKLLANAKELTNILKYHIGDEILVSGGIGALVRLKSLQGDKLEVSSKNNVVSVNKEPVAETDIMEFGPLGVRGVDGQERGDSLAGLE
modifications: MFK23
B2: MFK24: fusion peptide having sequential links of mdhFas-1, MMP1 substrate GPQGIAG (SEQ ID NO: 6), and QERGDSLA (SEQ ID NO: 10) (protein)
chain: B1 chain with L77Q, V79I, R80A
modifications: MFK24

Legend:
[1] = test system: mouse fibroblast (NIH3T3); assay: βig-h3-mediated cell adhesion test, NIH3T3; format: cell-based; conditions: for βig-h3-mediated cell adhesion: NIH3T3, βig-h3 5 ug/ml coat
Protocol: (§1) Human βig-h3 was introduced into a 96-well plate at a concentration of 5 ug/ml, and coated for 14 hours at 4° C. In DMEM+0.5% BSA (Bovine Serum Albumin) culture medium, human fibroblast (NIH3T3) was introduced, and hsdhFas-1 peptide at concentrations was injected thereto, followed by mixing. The resultant mixture was cultured at 37° C. for 30 minutes, and plated on a coated well. It was cultured for 2 hours, and washed with PBS (phosphate buffered saline) so as to remove unattached cells, and then added with a substrate (4-Nitrophenyl N-acetyl-β-D-glucosaminide, Sigma, U.S.) to be activated by β-N-acetylglucosaminidase within the cell, followed by culturing at 37° C. for 1 hour. Then, a glycine EDTA solution (0.5M EDTA, 50 mM glycine, pH 10.4) was added thereto, and the coloring extent according to the number of attached cells was measured by absorbance.
Also, a structurally modified peptide of a fas-1 domain of mouse βig-h3 was synthesized as a recombinant peptide (hereinafter, referred to as ‘mdhFas-1peptide’, see FIG. 2), and a mouse cell line, that is, NIH3T3 cell line, was used to test the inhibiting effect by mdhFas-1 peptide on adhesion and migration of a Synovial membrane cell in the same manner as that in the test using human βig-h3.
as §1, with “βig-h3” for “Human βig-h3”, “mouse” for “human”, “MFK23, MFK24, MFK25 or MFK27” for “hsdhFas-1 peptide”

[2] = molecular target: MMP3 (Homo sapiens, UniProt P08254); assay: Enzymatic digestion test, MMP3; format: biochemical; conditions: 3 ug peptide, MMP3 10, 50, 100 ng, 37° C. 4 hours
Chain of MMP3 (P08254 100-477, species assumed): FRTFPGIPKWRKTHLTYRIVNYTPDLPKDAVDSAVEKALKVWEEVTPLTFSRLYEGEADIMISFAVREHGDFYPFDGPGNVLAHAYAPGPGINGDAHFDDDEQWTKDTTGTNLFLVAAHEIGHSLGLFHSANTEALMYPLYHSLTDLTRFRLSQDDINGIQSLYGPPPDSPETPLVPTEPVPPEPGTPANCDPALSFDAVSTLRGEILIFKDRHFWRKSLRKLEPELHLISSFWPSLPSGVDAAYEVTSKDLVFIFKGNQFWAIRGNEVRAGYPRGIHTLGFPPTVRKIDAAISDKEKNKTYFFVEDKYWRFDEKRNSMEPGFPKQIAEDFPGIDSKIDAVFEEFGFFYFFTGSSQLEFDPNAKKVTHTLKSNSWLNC
Protocol: 3 ug of synthesized mdhFas-1-MMPsubstrate structure modified protein, together with MMP1 (5 ng, 10 ng and 50 ng), MMP2 (100 ng, 200 ng and 800 ng), MMP3 (10 ng, 50 ng and 100 ng), cathepsin D (5 ng, 10 ng and 50 ng), cathepsin L (100 ng, 200 ng and 800 ng), and cathepsin K (10 ng, 50 ng and 100 ng), was mixed with enzyme buffer (150 mM NaCl, 5 mM. CaCl2, 20 mM Tris-HCl pH7.5), and reacted at 37° C. for 4 hours. The resultant product was subjected to electrophoresis through 15% polyacrylamide gel, transferred to a Nitrocellulose Membrane (Schleicher & Schuell), blocked at room temperature for 1 hour with TBST solution containing 3% BSA (20 mmole/L Tris-HCl, 137 mmole//l NaCl, 0.1% Tween-20), washed TBST solution three times (each for 10 minutes), and reacted with primary antibody (anti-Histidine or anti-Bigh3) for 1 hour. The resultant product was washed with TBST solution three times (each for 10 minutes), reacted with a secondary antibody conjugated to horseradish peroxidase (HRP) for 1 hour, washed TBST solution three times (each for 10 minutes), and visualized by ECL (Amersham Biosciences, UK) so as to detect the change in the amount of mdhFas-1-MMPsubstrate-RGD structural peptide.

[3] = test system: collagen-induced arthritis (CIA) mouse model; assay: Arthritis therapeutic effect in CIA mouse (clinical arthritis index); format: in vivo
Protocol: A CIA mouse model having the similar characteristic to that of human rheumatoid arthritis was prepared according to the description in a known literature (Protocol for the successful induction of collagen-induced arthritis (CIA) and collagen antibody-induced arthritis (CAIA) in mice. Chondrex, Redmond, Wash.): Bovine type 2 collagen 100 ug was mixed with Freund's complete adjuvant, and hypodermically inoculated into the tail of the mouse. After 3 weeks, bovine type 2 collagen 100 ug was mixed with Freund's incomplete adjuvant, and inoculated again into the tail of the mouse. Then, the mouse was used in the experiment.
In order to find out the therapeutic effect of arthritis in a CIA model, for four weeks from the onset (the 23rd day) of arthritis following the second injection of the bovine type 2 collagen, MFK23 or MFK24 was daily injected into the abdominal cavity in doses of 0.1 mg/kg, 1 mg/kg, 10 mg/kg and 30 mg/kg. As a control group, the same amount of PBS was injected into the abdominal cavity. From the 23rd day to the 50th day, by using a Clinical arthritis index, the severity of arthritis was daily determined. The determination was based on the following data.
0; no symptom, 1; edema in one articulation or light edema, 2; severe edema in 2 or more articulations, 3; severe edema in most articulations, 4; severe edema in the whole of legs.

[4] = test system: foot tissue of CIA mouse (Synovial membrane, cartilage, bones; CD31, ICAM-1); assay: Histologic and immunohistochemistry test on foot tissue of CIA mouse; format: in vivo; conditions: CIA mouse foot tissue, 50th day, FIGS. 18 and 20
Protocol: In order to determine the action mechanism of an arthritis therapeutic effect in a CIA model, on the 50th day following the second injection of the bovine type 2 collagen (after 4 weeks from the onset (the 23rd day) of arthritis following the second injection of the bovine type 2 collagen), foot tissues of treatment groups were separated and subjected to histologic analysis. Then, in the tissues, a change in the expression of inflammatory mediators was examined.
A tissue sample was prepared by the following process. Skin on the foot tissue was removed. Then, the tissue was fixed in 10% formalin solution for 2 days, and demineralized in 10% EDTA solution. The demineralized tissue was subjected to a dehydrating process and a clearing process, paraffin-embedded, and was made into a fragment with a thickness of 3 um by a microtome. The tissue fragment was deparaffinized and re-dehydrated by 100% xylene and ethanol, and then non-specific peroxidase within the tissue was blocked by a solution of 0.3% hydrogen peroxide dissolved in 100% methanol.
In order to carry out an immunohistochemistry test, binding of non-specific protein was blocked by 5% BSA. Then, the tissue was cultured, together with each primary antibody (as endothelial cell markers, an antibody to CD31, and an antibody to ICAM-1 (intercellular adhesion molecule-1)), at 4° C. for 12 to 14 hours, and washed with washing buffer (0.1% BSA, 0.2% gelatin, 0.05% saponin). It was cultured together with a secondary antibody labeled with biotin at room temperature for 30 minutes, was washed, reacted with Vectastatin ABC kit (Vector Laboratories, U.S.), and was mounted with Eukitt mounting media (Fluka, Germany) for observation.

Row | Molecule | concentration at which treatment inhibited the adhesion ([1]; NIH3T3, FIG. 14) [µM] | βig-h3-mediated cell adhesion [1] | cleavage through treatment with MMP-3 [2] | arthritis inhibiting effect (clinical arthritis index), in words ([3]; daily into the abdominal cavity) | deformation of cartilage and bones (HE stain) [4] | proliferation of a Synovial membrane cell (HE stain) [4] | adhesion inhibiting effect ([1]; NIH3T3, concentration of 0.5uM, FIG. 15C) [%] | concentration relative to conventional mdhFas-1 or MFK12 that shows a higher arthritis inhibiting effect [3] | arthritis inhibition (clinical arthritis index) ([3]; 0.1 mg/kg daily into the abdominal cavity, four weeks)
1 | B1 | ≥ 5 | even at a very low concentration can inhibit the cell adhesion; also recorded: concentration-dependently inhibited | not cleaved | excellent effect on arthritis | reduced the deformation of cartilage and bones | inhibited the proliferation of a Synovial membrane cell |  |  | 
2 | B2 |  | even at a very low concentration can inhibit the cell adhesion; also recorded: concentration-dependently inhibited | not cleaved |  | reduced the deformation of cartilage and bones | inhibited the proliferation of a Synovial membrane cell | ≥ 80 | 1/100 | about 70%
